According to patent US20240376207A1 (JIANGSU HENGRUI PHARMACEUTICALS, published 2024):
Where a chain is given by its changes, count along the chain named.

T1: human PVRIG expressed on cells (human, UniProt Q6DKI7 41-326)
T1 sequence (looked up): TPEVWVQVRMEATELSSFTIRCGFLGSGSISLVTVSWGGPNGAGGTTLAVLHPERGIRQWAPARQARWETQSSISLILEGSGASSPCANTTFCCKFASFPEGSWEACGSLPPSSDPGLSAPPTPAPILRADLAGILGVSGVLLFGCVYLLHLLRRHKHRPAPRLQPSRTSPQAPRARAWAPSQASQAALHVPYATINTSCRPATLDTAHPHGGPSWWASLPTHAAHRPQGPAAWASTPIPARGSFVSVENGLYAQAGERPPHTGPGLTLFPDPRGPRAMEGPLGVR

T2: human IgG1 Fc-tagged mouse PVRIG (m-PVRIG-hIgG1 Fc) (mouse, UniProt A0A1B0GS01 35-165)
T2 construct: bought from Acrobiosystems; also called Mouse PVRIG-Fc; mouse PVRIG recombinant protein; not shown: human IgG1 Fc tag of the Acrobiosystems product, and any linker to it
T2 sequence: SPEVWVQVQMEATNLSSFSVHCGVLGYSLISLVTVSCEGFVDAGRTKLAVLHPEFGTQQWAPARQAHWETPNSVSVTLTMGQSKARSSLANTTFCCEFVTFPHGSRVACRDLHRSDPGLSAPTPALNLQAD

T3: his-tagged cynomolgus monkey PVRIG (cyno-PVRIG-his) recombinant protein (cynomolgus monkey)
T3 construct: expressed in HEK293, purified by Ni-NTA; also called Monkey PVRIG-his; cynomolgus monkey PVRIG recombinant protein
T3 chain: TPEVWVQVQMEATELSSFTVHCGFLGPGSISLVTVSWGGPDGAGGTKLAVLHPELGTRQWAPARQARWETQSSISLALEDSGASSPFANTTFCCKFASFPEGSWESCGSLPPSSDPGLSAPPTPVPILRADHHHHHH

T4: his-tagged human PVRIG (h-PVRIG-his) recombinant protein (human, UniProt Q6DKI7 41-171, limits assumed)
T4 construct: bought from Acrobiosystems; also called Human PVRIG-his; human PVRIG recombinant protein; not shown: his tag
T4 sequence (looked up): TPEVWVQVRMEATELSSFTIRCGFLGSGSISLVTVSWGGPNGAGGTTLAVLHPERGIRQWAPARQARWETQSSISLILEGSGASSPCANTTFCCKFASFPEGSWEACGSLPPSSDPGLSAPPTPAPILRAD

T5: cynomolgus monkey PVRIG expressed on cells (cynomolgus monkey, UniProt A0A2K5WVV8 1-322)
T5 construct: whole, on cells; also called Monkey PVRIG FACS; cells overexpressing cynomolgus monkey PVRIG
T5 sequence: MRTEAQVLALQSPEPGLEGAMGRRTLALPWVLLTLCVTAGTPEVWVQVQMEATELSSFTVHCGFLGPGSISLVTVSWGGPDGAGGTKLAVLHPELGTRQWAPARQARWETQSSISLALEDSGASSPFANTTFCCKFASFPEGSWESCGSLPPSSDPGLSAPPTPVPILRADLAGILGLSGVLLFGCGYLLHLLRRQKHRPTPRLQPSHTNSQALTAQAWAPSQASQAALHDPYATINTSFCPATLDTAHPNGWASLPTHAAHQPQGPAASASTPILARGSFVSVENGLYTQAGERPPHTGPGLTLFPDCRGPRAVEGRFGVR

B1: humanized anti-PVRIG antibody 39H4 (antibody, human IgG4 S228P, F234A L235A, V domains shown)
VH: EVQLVESGGGLVQPGGSLRLSCAASGYTSRTDCMGWFRQAPGKGLEGVAHIDSDGIPRYVESVKGRFTISQDHAKNSLYLQMNSLRAEDTAVYYCVVGFKFGDYCAPNDWGQGTMVTVSS
B2: humanized anti-PVRIG antibody 39H2 (antibody, human IgG4 S228P, F234A L235A, V domains shown)
VH: B1 VH with Y27F, Q71R, H73N
B3: humanized anti-PVRIG antibody 39H1 (antibody, human IgG4 S228P, F234A L235A, V domains shown)
VH: B1 VH with Y27F, S29F, R30S, Q71R, H73N
B4: humanized anti-PVRIG antibody 20H5 (antibody, human IgG4 S228P, F234A L235A, V domains shown)
VH: EVQLVESGGGLVQPGGSLRLSCAASGYTSRTDCMGWFRQAPGKEHEGVAHIDSDGIPRYVDSVKGRFTISQDHAKNSLYLQMNSLRAEDTAVYYCVVGFKFDEDYCAPNDWGQGTMVTVSS
B5: humanized anti-PVRIG antibody 151H4 (antibody, human IgG4 S228P, F234A L235A, V domains shown)
VH: EVQLVESGGGLVQPGGSLRLSCVASASGFTYRPYCMAWFRQAPGKGLEAVAGIDIFGGTTYADSVKGRFTISRDNAKNSLYLQMNSLRAEDTAVYYCAAGDSPDGRCPPLGQGLNYWGQGTMVTVSS
B6: humanized anti-PVRIG antibody 151H7 (antibody, human IgG4 S228P, F234A L235A, V domains shown)
VH: B5 VH with E1H, G46E, L47R, I71A, K77G, N78F
B7: humanized anti-PVRIG antibody 30H2 (antibody, human IgG4 S228P, F234A L235A, V domains shown)
VH: EVQLVESGGGLVQPGGSLRLSCAASGFTFSGDCMGWFRQAPGKGLDEGVATIDNAGRIKYADSVKGRFTISRDNAKNSLYLQMNSLRAEDTAVYYCAAGWTFGGQCSPADWGQGTQVTVSS
B8: humanized anti-PVRIG antibody 30H3 (antibody, human IgG4 S228P, F234A L235A, V domains shown)
VH: B7 VH with F27Y, T28S, F29Y
B9: anti-PVRIG antibody 20 (antibody, human IgG4 S228P, F234A L235A, V domains shown)
VH: DVQLVESGGGSVQAGGSLRLSCVASRYTSRTDCMGWFRQAPGKEHEGVAHIDSDGIPRYVDSVKGRFTISQDHAKNTLYLQMNSLKPEDSATYYCVVGFKFDDDYCAPNDWGQGTQVTVSS
notes: no light chain
B10: humanized anti-PVRIG antibody 38H2 (antibody, human IgG4 S228P, F234A L235A, V domains shown)
VH: EVQLVESGGGVVQPGGSLRLSCAASGFTFSPSDMAWFRQAPGKGLEGVATISAAGRLTYYTDSVRGRFTISRDNSKNTLYLQMNSLRAEDTAVYYCAADFAGGSSLFADYKYWGQGTMVTVSS

Molecular target: T1, human PVRIG expressed on cells
Test: cell-based or functional assay

Row | PVRIG reporter gene cell activity EC50 | Binder
1 | 0.094 nM | B1
2 | 0.074 nM | B2
3 | 0.191 nM | B3
4 | 0.042 nM | B4
5 | 3.55 nM | B5
6 | 0.038 nM | B6
7 | 0.176 nM | B7
8 | 0.078 nM | B8

Molecular target: T1, human PVRIG expressed on cells
Test: cell-based or functional assay
Remark: another data set of the same source

Row | Binder | NK92 killing of K562, killing activity (%), 4 nM antibody | NK92 killing of K562, killing activity (%), 20 nM antibody | NK92 killing of K562, killing activity (%), 100 nM antibody
9 | B2 | 15.3% | 18.7% | 19.7%
10 | B3 | 13.7% | 17.7% | 21.2%
11 | B6 | 16.9% | 21% | 18.4%

Molecular target: T2, human IgG1 Fc-tagged mouse PVRIG …
Test: ELISA, coated antigen
Protocol: (§1) ELISA assay was used to detect binding properties of anti-PVRIG antibodies. […] After the antibody was added, the activity of the binding of the antibody to the antigen was detected by adding a secondary antibody (HRP-conjugated anti-primary antibody Fc antibody) and HRP substrate TMIB.
(§2) A human, cynomolgus monkey, or mouse PVRIG protein (at a concentration of 1 μg/mL) was coated on a 96-well microplate at 100 μL per well, and incubated overnight at 4° C. The plate was washed three times with wash buffer at 250 μL per well. For each wash, the plate was shaken for 10 s to ensure adequate cleaning. A blocking solution (PBS+0.05% Tween20+1% BSA) was added at 300 μL/well, and the plate was incubated at room temperature for 1 h. The plate was washed three times with wash buffer at 250 μL per well. For each wash, the plate was shaken for 10 s to ensure adequate cleaning. Dilutions of the test anti-PVRIG antibodies were added at 100 μL/well. The plate was incubated at 37° C. for 1 h. The plate was washed three times with wash buffer at 250 μL per well. The […] anti-human IgG secondary antibody (Sigma, A8667) was added at 100 μL per well. The plate was incubated at 37° C. for 1 h. The plate was washed three times with wash buffer at 250 μL per well. TMB was added at 100 μL/well, and the plate was incubated in the dark for 15 min. 0.16 M sulfuric acid was added at 50 μL/well. The OD values at 450 nm were read by using a Thermo MultiSkanFc microplate reader, and the EC₅₀ values of the binding of the anti-PVRIG antibodies to PVRIG were calculated.

Row | binding result | Binder
12 | no binding | B9

Molecular target: T3, his-tagged cynomolgus monkey PVRIG …
Test: ELISA, coated antigen
Protocol: as §1, §2

Row | EC50 | Binder
13 | 0.14 nM | B9

Molecular target: T1, human PVRIG expressed on cells
Test: cell-based or functional assay
Remark: another data set of the same source

Row | Binder | NK92 killing of K562, killing activity (%), 4 nM antibody | NK92 killing of K562, killing activity (%), 20 nM antibody | NK92 killing of K562, killing activity (%), 100 nM antibody
14 | B4 | 9.2% | 9.9% | 13.3%
15 | B7 | 7.7% | 14.5% | 17.7%

Molecular target: T4, his-tagged human PVRIG (h-PVRIG-his) …
Test: BLI (Fortebio), antibody on Protein A sensor, 1:1 fit
Protocol: A Protein A biosensor (Fortebio, #18-5010) was immersed in 200 μL of KB buffer (PBS, pH 7.4, 0.02% tween-20, 0.1% BSA) for 60 s for the wetting treatment. Then, the anti-PVRIG antibody was diluted to 10 μg/mL with the KB buffer, and the sensor was immersed in 200 μL of the solution until the reading was 1.2 nm. The sensor was immersed in the KB buffer for 100 s to elute excess antibody. The his-tagged human PVRIG was diluted in a 2-fold gradient to 64 nM-4 nM with the KB buffer. The sensor was immersed in the solution for 300 s for binding. The sensor was immersed in the KB buffer for 600 s for dissociation. The data were fitted in a dynamic 1:1 binding mode.
The affinity of the humanized anti-PVRIG antibodies for human PVRIG was detected according to the method of Example 7. All the antibodies listed in the Table have high affinity for human PVRIG.

Row | Kd | koff | kon | Binder
16 | 0.482 nM | 9.11e-05 s⁻¹ | 189000 M⁻¹ s⁻¹ | B1
17 | 0.692 nM | 0.000124 s⁻¹ | 180000 M⁻¹ s⁻¹ | B2
18 | 3.28 nM | 0.000865 s⁻¹ | 264000 M⁻¹ s⁻¹ | B3
19 | 0.0698 nM | 1.35e-05 s⁻¹ | 193000 M⁻¹ s⁻¹ | B4
20 | 1.2 nM | 0.000188 s⁻¹ | 157000 M⁻¹ s⁻¹ | B6
21 | 1.92 nM | 0.000325 s⁻¹ | 169000 M⁻¹ s⁻¹ | B7
22 | 2.41 nM | 0.000358 s⁻¹ | 148000 M⁻¹ s⁻¹ | B8

Molecular target: T5, cynomolgus monkey PVRIG expressed on …
Test: FACS, HEK293 cells overexpressing target
Protocol: (§3) The expression plasmid carrying human or cynomolgus monkey PVRIG gene sequence was transfected into HEK293 cells, and the over-expressing stable transfection monoclonal cell strain was obtained by antibiotic screening and infinite dilution. Overexpressing cells were seeded into a 96-well plate at 2×10⁵ cells/per well. The cells were centrifuged at 300 g for 5 min, the supernatant was then removed, 100 μL of the test antibody was added, and the mixture was incubated at 4° C. for 1 h. The mixture was centrifuged, the supernatant was removed, the plate was washed 3 times with 200 μL of wash buffer (PBS+2% FBS), and then 100 μL of an anti-human IgG secondary antibody (Invitrogen, A-11013) labeled with Alexa Fluor 488 diluted at 1:500 was added. The mixture was incubated at 4° C. for 1 h. The plate was centrifuged, and the supernatant was removed. The plate was washed 3 times with 200 μL of wash buffer (PBS+2% FBS). The cells were resuspended in 100 μL of PBS and tested on a flow cytometer (BD FACS Calibur or BD FACS Canto_II).
(§4) Binding of the humanized anti-PVRIG antibodies to human or cynomolgus monkey PVRIG was detected by using a flow cytometer according to the method of Example 5.

Row | EC50 | Binder
23 | 0.137 nM | B10
24 | 0.006 nM | B1
25 | 0.019 nM | B2
26 | 0.251 nM | B3
27 | 0.007 nM | B4
28 | 0.035 nM | B5
29 | 0.467 nM | B6
30 | 0.005 nM | B7
31 | 0.003 nM | B8

Molecular target: T1, human PVRIG expressed on cells
Test: FACS, HEK293 cells overexpressing target
Protocol: as §3, §4

Row | EC50 | Binder
32 | 0.088 nM | B10
33 | 0.005 nM | B1
34 | 0.006 nM | B2
35 | 0.004 nM | B3
36 | 0.005 nM | B4
37 | 0.24 nM | B5
38 | 0.002 nM | B6
39 | 0.003 nM | B7
40 | 0.004 nM | B8
